The values that follow come from paper PMC7555870, “Isolation, Evaluation, and Identification of Angiotensin I-Converting Enzyme Inhibitory Peptides from Game Meat” (Foods, 2020).

As usually defined, the IC50 is the point on the concentration scale where inhibition reaches its midpoint. Higher therefore signals weaker potency in that assay.

Read-outs that look alike come from different tables or passages of the source. Marks after values point to notes of the source that are not given here. Where no end group is shown, it is not given here. [ ]: non-standard residue; d: D form.

The subject of experiment [1] is ACE. The note with it: previously reported peptides; cited from earlier work. From the text:
The potent ACE inhibitory peptides are generally short chains of 3–6 amino acids, with a Ser, Leu, or Thr at the C-terminal, which plays an important role in this activity. The ACE inhibitory peptides identified in this study, except for IKEVTER, seem to be of a larger size than those of inhibitory peptides described in previous reports. ACE inhibitory peptides have been previously reported from meat and seafood vertebrate specimens, and their IC50 values have been reported.

Experiment [2] concerns the target T1, ACE, a dipeptidyl carboxypeptidase (EC 3.4.15.1) extracted from rabbit lung (Oryctolagus cuniculus, UniProt P12822).
T1 construct: extracted from rabbit lung; purchased Sigma Chemical Co. (St. Louis, MO, USA); host or cells: rabbit lung tissue
T1 sequence (P12822 34-1310): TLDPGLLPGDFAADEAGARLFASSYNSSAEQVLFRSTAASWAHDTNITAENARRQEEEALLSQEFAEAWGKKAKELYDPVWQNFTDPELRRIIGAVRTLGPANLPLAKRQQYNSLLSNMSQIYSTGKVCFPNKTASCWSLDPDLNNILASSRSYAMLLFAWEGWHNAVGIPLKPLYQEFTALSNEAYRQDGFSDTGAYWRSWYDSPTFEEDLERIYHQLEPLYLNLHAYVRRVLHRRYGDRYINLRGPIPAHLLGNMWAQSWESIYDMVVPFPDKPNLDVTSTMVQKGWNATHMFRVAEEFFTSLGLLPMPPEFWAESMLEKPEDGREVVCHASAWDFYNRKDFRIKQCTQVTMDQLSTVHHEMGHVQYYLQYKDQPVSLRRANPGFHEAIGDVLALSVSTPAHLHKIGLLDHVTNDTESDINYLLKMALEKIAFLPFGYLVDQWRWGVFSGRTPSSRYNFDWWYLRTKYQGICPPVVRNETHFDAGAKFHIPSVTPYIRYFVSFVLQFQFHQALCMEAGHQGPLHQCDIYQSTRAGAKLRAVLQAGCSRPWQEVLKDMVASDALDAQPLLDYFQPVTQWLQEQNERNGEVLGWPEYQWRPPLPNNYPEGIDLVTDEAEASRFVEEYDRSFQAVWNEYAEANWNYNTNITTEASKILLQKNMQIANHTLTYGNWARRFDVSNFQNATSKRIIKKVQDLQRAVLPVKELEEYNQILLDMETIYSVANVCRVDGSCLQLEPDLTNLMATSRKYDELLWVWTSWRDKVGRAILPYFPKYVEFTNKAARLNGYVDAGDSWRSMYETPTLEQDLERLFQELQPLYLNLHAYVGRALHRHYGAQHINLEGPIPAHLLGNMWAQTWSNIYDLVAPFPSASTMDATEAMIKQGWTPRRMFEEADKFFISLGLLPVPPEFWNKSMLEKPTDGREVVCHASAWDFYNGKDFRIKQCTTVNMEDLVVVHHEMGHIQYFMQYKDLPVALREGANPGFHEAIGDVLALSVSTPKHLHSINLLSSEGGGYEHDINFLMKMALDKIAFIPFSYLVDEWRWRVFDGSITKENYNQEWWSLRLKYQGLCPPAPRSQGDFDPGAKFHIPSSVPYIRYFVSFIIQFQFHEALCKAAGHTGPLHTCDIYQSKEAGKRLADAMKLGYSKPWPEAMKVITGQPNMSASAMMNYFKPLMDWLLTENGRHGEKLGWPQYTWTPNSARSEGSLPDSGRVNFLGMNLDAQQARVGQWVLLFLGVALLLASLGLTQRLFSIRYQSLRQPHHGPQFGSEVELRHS
Description: ACE inhibitory activity assay, modified Cheung method (96-well plate, HHL, OPA fluorescence). In kind it is biochemical. To be noted: synthesized peptides identified from digested venison; mean ± SD of three repeated experiments; ND = not detectable. How it is done: The digested samples were centrifuged at 10,000× g for 15 min, and the supernatants were subjected to an ACE inhibitory assay. ACE inhibitory activity was measured using a previously reported method. ACE, a dipeptidyl carboxypeptidase (EC 3.4.15.1) extracted from rabbit lung, was obtained from Sigma Chemical Co. (St. Louis, MO, USA). Hippuryl-L-histidyl-L-leucine (HHL) (Nacalai Tesque) was used as the synthetic substrate. A 40 µL aliquot of each sample solution was added to 100 µL of borate buffer (containing 0.3 M NaCl, 5 mM HHL, pH 8.3) and incubated at 37 °C for 3 min. Then, 20 µL ACE solution (0.1 U mL^−1) was added to each sample solution, and the reaction mixture was incubated at 37 °C for 30 min. After that, the reaction was terminated using 250 µL of 1 M HCl, and hippuric acid was extracted by adding 1.5 mL of ethyl acetate and shaking. Eventually, mixtures were centrifuged at 1750× g for 10 min, 1 mL of supernatant was transferred into a test tube, and ethyl acetate was eliminated by heat evaporation at 95 °C. The precipitate was re-dissolved in 2 mL of deionized water and measured spectrophotometrically at 228 nm, using a UV-1800 spectrophotometer (Shimadzu, Kyoto, Japan). For the analysis of samples fractionated by reversed-phase chromatography, the synthetic peptides were assayed using the modified method reported by Cheung, et al.. Briefly, 50 µL of sample solution, 100 µL of the ACE 0.01 U/mL, and 20 µL of 25 mM HHL were mixed in a 96-well plate and incubated at 37 °C for 40 min. Subsequently, 100 µL of 1 M NaOH, 10 µL 0.2% OPA, and 15 µL 3.6 M phosphoric acid were added, and the fluorescence of samples was measured using the plate-reader POWERSCAN MX (DS Pharma Biomedical Co., Ltd., Osaka, Japan) at an excitation wavelength of 360 nm and emission wavelength of 460 nm. The inhibitory activity (%) was calculated as follows: inhibitory activity (%) = ((Ac – As)/(Ac – Ab)) × 100. Ac is the intensity of the control, as is the intensity of the sample, and Ab is the intensity of the blank. Data are expressed as the 50% inhibitory concentration (IC50) for each sample.

In experiment [3] the target is T2, angiotensin I-converting enzyme (ACE), a dipeptidyl carboxypeptidase (EC 3.4.15.1) extracted from rabbit lung (rabbit) (UniProt P12822).
T2 sequence: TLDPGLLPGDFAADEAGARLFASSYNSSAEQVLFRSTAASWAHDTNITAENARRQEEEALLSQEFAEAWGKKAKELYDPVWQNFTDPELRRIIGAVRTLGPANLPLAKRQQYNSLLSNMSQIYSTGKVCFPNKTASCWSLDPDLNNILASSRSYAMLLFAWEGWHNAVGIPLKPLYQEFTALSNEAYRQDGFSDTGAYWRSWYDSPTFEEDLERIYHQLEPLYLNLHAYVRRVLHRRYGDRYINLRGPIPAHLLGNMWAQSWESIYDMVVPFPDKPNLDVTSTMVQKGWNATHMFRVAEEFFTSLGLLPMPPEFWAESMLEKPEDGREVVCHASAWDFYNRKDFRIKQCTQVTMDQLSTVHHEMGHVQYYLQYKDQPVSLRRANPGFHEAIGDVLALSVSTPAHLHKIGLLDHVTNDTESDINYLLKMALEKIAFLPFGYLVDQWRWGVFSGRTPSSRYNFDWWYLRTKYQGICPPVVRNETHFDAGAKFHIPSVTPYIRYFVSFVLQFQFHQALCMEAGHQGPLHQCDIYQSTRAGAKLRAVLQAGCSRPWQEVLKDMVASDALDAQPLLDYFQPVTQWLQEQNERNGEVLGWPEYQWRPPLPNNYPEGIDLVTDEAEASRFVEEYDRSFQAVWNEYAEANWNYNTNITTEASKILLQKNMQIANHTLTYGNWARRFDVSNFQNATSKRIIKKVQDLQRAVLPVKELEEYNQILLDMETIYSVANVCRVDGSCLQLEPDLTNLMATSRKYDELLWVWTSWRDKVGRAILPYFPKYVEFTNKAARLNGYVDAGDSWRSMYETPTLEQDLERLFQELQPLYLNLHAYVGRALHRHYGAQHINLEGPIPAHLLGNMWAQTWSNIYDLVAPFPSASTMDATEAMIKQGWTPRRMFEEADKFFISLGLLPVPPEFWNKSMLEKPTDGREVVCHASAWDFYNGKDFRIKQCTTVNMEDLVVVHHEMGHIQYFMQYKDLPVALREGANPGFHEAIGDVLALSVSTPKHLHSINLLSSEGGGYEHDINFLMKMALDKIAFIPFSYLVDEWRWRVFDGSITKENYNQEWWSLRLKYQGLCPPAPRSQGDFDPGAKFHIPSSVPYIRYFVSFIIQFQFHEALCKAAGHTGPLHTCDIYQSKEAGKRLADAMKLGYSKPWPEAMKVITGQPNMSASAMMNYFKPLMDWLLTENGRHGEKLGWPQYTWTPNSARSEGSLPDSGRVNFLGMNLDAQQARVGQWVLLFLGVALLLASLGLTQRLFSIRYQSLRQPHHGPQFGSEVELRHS

In the case of DFHING, in experiment [1], the “ACE inhibition IC50 values” is 64.3 µg/mL.
Take GLSDGEWQ: in experiment [1], the “ACE inhibition IC50 values” is 50.5 µg/mL.
As for “VcNYVNWIQQTIAAN (V[code c]NYVNWIQQTIAAN; not fully specified; printed as VcNYVNWIQQTIAAN) [synthesized peptide identified from digested venison; origin Tropomyosin alpha-3 chain]”, the “Ace Inhibitory Activity (IC50)” value in experiment [2] is given as 358.64 ± 64.71 ^a μg/mL.
As for “IKEVTER [IKEVTER, Isoleucine-Lysine- Glutamic Acid-Valine-Threonine-Glutamic Acid-Arginine]”, in experiment [2], the concentration for half-maximal inhibition (IC50) is 99 µM.
For GFHI, in experiment [1], the “ACE inhibition IC50 values” is 117 µg/mL.
On to “mQGTLEDQIISANPLLEAFGNAK ([code m]QGTLEDQIISANPLLEAFGNAK; not fully specified; printed as mQGTLEDQIISANPLLEAFGNAK) [synthesized peptide identified from digested venison; origin Myosin-1]”, for which the “Ace Inhibitory Activity (IC50)” value in experiment [2] is 292.83 ± 38.27 ^a,b μg/mL.
For the molecule TEAGATVTVK [TEAGATVTVK], it took 214 µM to reach half-maximal inhibition in experiment [2] (IC50).
Consider TEAGATVTVK […], for which the ACE inhibitory activity (IC50; hydrolysis of hippuryl-L-histidyl-L-leucine by ACE, OPA fluorescence, 37 °C) in experiment [3] amounted to 359 µg/mL; in experiment [3] (record 2) it was 293 µg/mL; in experiment [3] (record 3), 86.5 µg/mL; in experiment [3] (record 4) it was 209 µg/mL.
